These results are taken from patent US20260055191A1.

This assay deals with purified total human IgA (human) (UniProt P11912). As to the kind of experiment: cell-based or functional assay.
Sequence of UniProt P11912 (P11912 whole entry): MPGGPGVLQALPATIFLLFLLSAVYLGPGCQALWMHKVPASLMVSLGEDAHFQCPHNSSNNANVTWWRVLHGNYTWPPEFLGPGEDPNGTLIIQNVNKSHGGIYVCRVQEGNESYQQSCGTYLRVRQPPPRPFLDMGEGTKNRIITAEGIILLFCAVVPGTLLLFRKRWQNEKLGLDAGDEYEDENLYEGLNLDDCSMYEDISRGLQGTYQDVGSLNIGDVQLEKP

B1: sCD89 glycoengineered polypeptide (receptor)
chain: QEGDFPMPFISAKSSPVIPLDGSVKIQCQAIREAYLTQLMIIKNSTYREIGRRLKFWNETDPEFVIDHMDANKAGRYQCQYRIGHYRFRYSDTLELVVTGLYGKPFLSADRGLVLMPGEQISLTCSSAHIPFDRFSLAKEGELSLPQHQSGEHPAQFSLGPVDLQVSGIYRCYGWYQRSPYLWSFPSNALELVVTGGGGANSTAPAPAPAHHHHHHHHHH
modifications: A2GalNAc2 N-glycans (82.8% A2GalNAc2) at three N-glycosylation sites: native N65 and N79 (numbering according to Uniprot P24071) and the site in the C-terminal glycotag; >95% all occupied
As to B1, the percent of human IgA target remaining in rat serum (total free+bound human IgA by ELISA) 6 hours after subcutaneous administration of 2.0 mg was less than 5%.
